Results as given in the nanobody polyreactivity screen of Harvey et al. (2022).

assay: yeast display, Sf9 membrane polyspecificity reagent, FACS + sequencing; frameworks hold sequencing errors
How it was run: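 Galactose-induced (36–48 hours) yeast carrying a synthetic nanobody display library were exposed to 10% biotinylated, detergent-solubilized Sf9 membrane reagent at 4 °C for 1 hour. FACS followed streptavidin microbead enrichment, using low and high (top ~1%) gates for expression (anti-HA) and reagent binding (streptavidin). Colony PCR, MiSeq 2 × 250 sequencing and CDR-length filtering followed. Labels for polyreactivity reflect the gate of origin.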

Row | Sequence | polyreactivity (PSR sort gate)
1 | QVQLVESGGGIVQAGGSLRLSCAASGFTFARNAMGWSRQAPGNEWELVAAISYRGGSTYYADSVKGRFTISRDNAKNTLYLQMNSLKPQDTAVYYCAAEVVWYVYRRYYYWGQGTQVTVSS | high polyreactivity
2 | QVQLVESGGGIVQAGGSLRLSCAASGFTFRGNAMGWYRQAPGKERELVAVINASGDSTYYADSVKGRFTISRDNAKNTVYLQMNSLKPEDTAVYYCARAYTRRWRYDYWGQGTQVTVSS | high polyreactivity
3 | QVQLVESGGGIVQAGGSLRLSCAASGGIFFPNAMGWYRQAPGKERELVAAISWSAGSTYYADSVKVRFTISRDNAKNTVYLKKISLIPEDTAVYYCAAAGSNYTVWYGYYYWGQGTQVTVSS | low polyreactivity
4 | QVQLVESGGGIVQAGGSLRLSCAASGIIFYGYAMGWYRQAPGKERELVAVITSGGSTNYADSVKGRFTISRDNAKNTVYLQMNSLKPEDTAVYYCNAGYVSPDYDSWGQGTQVTVSS | high polyreactivity
5 | QVQLVESGGGIVQAGGSLRLSCAASGITFPNYAMGWYRQAPGKERELVAAISSSGGSTYYADSVKGRFTISRDNPKNTVYLQMNSLKPEDTAVYYCATAINVYPRLDYGYWGQGTQVTVSS | low polyreactivity
6 | QVQLVESGGGIVQAGGSLRLSCAASGLIFSVNAMGWYRQAPGKERELVASISVSGGSTYYADSVKGRFTISRDNAKNTVYLQMNSLKPEDTAVYYCNTVPLAGEYSTDLRYDYWGQGTQVTVSS | low polyreactivity
7 | QVQLVESGGGIVQAGGSLRLSCAASGLNFGLYAMGWDRQAPGNERELVAAITWSGVSTSYADSVKGRFTISRDNAKNTVYLQMNSLKPEDTAVYYCNKDPGTLYGDMDSWGQGTQVTVSS | low polyreactivity
8 | QVQLVESGGGIVQAGGSLRLSCAASGLSRGVNVMGLYRQAPGKERELVAAISGAGRTYYADSVKGRFTISRDNAKNTVFLQMNSLKPEDTAVYYCASVRRRLSLTYDYWGQGTQVTVSS | high polyreactivity
9 | QVQLVESGGGIVQAGGSLRLSCAASGNIFPYYAMRWYRQERGKERELVASISRSGGSTYYADSVKGRFTISRDNAKNTVYLEMNSLKPEDTAVYYCNTLSRSWQMDYWGLGTQVTVSS | low polyreactivity
10 | QVQLVESGGGIVQAGGSLRLSCAASGNIFSYYAMGWYRQAPGKERELVAAITYRSDSTYYADSVKGRFTISRDNAKNTVYLQMNSLKPEDTAVYYCATEPWYGWGFGYWGQGTQVTVSS | low polyreactivity
11 | QVQLVESGGGIVQAGGSLRLSCAASGNTFHYYVMGWYRQAPGKERELVAAITYTGGSTYYADSVKGRFTISRDNAKNTVYLQMISLKPEDTAVYYCAAGFSPASQLDYWGQGTQVTVSS | low polyreactivity
12 | QVQLVESGGGIVQAGGSLRLSCAASGRHFYTNAMGWYRQAPGKERELVATISGSVGNTYYEDSVKGRFTISRDNAKNTVYLQMNSLKPEDTAVYYCAKAYYTPYGVYVLHYYWGQGTQVTVSS | high polyreactivity
13 | QVQLVESGGGIVQAGGSLRLSCAASGRIFKWNAMGWYRQAPGKERELVAAISTSRGNTYYADSVKGRFTSSRDYAKNTVYLLMNSLKPEDTAGYYCAATYPISLRQVGYWGQATQVTVSS | high polyreactivity
14 | QVQLVESGGGIVQAGGSLRLSCAASGRIFLSYAMGWYRQAPGKERELVAAISRNGGSTYYADSVKGRFTISRDNGKNTVYLPMNSLKPEDTAVYYCAAGGDYWGQGTQVTVSS | high polyreactivity
15 | QVQLVESGGGIVQAGGSLRLSCAASGRIFSFNTMVSYRQAPRKERELVAAITSSSARTYYADSVKGRFTISRDNAKNTVYLQMNSLKPEDTAVYYCATRDWVGSVRMGYWGQGTQVTVSS | high polyreactivity
16 | QVQLVESGGGIVQAGGSLRLSCAASGRIFSGNGMGWYRQAPGKEREFVAAIRFSSGSTYYADSVKGRFTISRDNAKNTVYLQMNSLKPEDTAVYYCARPSIPSRYDYWGQGTQVTVSS | high polyreactivity
17 | QVQLVESGGGIVQAGGSLRLSCAASGRIFVRYAMGWYRQAPGKERELVAAISKSGGSTYYADSVKGRFTISRENAKNTVYLQMYSLKPEDTAVYYCNALVRRRPGYIRYDYWGQGTQVTVSS | low polyreactivity
18 | QVQLVESGGGIVQAGGSLRLSCAASGRIFYRYDMGWYSQARGKERELVAAINDGGSTYYADSVKGRFTISRDNAKNTVYLQMNSLKPEDTAVYYCKVVNEHQSDFVVPFDYNHWGQGTQVTVSS | low polyreactivity
19 | QVQLVESGGGIVQAGGSLRLSCAASGRIFYSYAMGWYRQAPGKERELVATISSGGSTNYADSVKGRFTISRDNAKNTVYLQMNSLKPEDTAVYYCGRQSLRYSYVSRDYWGQGSQVTVSS | low polyreactivity
20 | QVQLVESGGGIVQAGGSLRLSCAASGRIIRYYAMGWYRQAPGKERELVAAITRGGSTNYADSVKGRFTISRDNAKNTVYLLMNSLKPEDTAVYYCATRQSWYPRWMDYWGQGTQVTVSS | high polyreactivity
21 | QVQLVESGGGIVQAGGSLRLSCAASGRIIVNYAMGWYRQAPGKERELVAAISYSGGGTYYADSVKGRFTISRDNAKNTVYLHMNSLKPEDTAVYYCATVRRDDRYNYWGQGNQVTVSS | low polyreactivity
22 | QVQLVESGGGIVQAGGSLRLSCAASGRTFAGNAMGWYRQAPGKERELVAAISQGGGSTYYADSVKGRFTISRDNAKNTVYLQMNSLKPEDTAVYYCAAEIPRRWASFATLWYDYWGQGTQVTVSS | low polyreactivity

Row | Sequence | polyreactivity (PSR sort gate)
23 | QVQLVESGGGIVQAGGSLRLSCAASGRTFKRYAMGWYRPAPGKERELVAAITRSGGSTYYADSVKGRFTISRDNAKNTVYLQMNSLKPEDTAVYYCATRSYNNELEYWGQGTQVTVSS | high polyreactivity
24 | QVQLVESGGGIVQAGGSLRLSCAASGRTFKYYAMGWYRQAPGKERELVAAITSTGGSTYYADSVKGRFTISRDNAKNTVYLQMNSLKPEDTAVYYCNRYTQYRDRSDNHWGQGTQVTVSS | high polyreactivity
25 | QVQLVESGGGIVQAGGSLRLSCAASGRTFQFYAMGWYRQEPGKERELVASITWSPVRTYYADSVKGRFTNSRDNAKNTVYLQMNSLKQEDTAVYSCAIDWDYRLMDYWGQGTQVTVSS | low polyreactivity
26 | QVQLVESGGGIVQAGGSLRLSCAASGRTFRGNAMGWYRQAPGKERELVAAIRYRGGSTYYADSVKGRFTISRDNAKNTVYLQMNSLKPEDTAVYDCARRYTVHTQHYDYWGQGTEVTVSS | high polyreactivity
27 | QVQLVESGGGIVQAGGSLRLSCAASGRTFRWNVMGCYRPAPGKERELVATISRRSGSTNYADSVKGRFTISRDNAKNTVYLQINSLKPEDTALYYCAVVIVRALVYSGDYWGQGTQVSVSS | low polyreactivity
28 | QVQLVESGGGIVQAGGSLRLSCAASGRTLPEYAMGWYIQEPGKERELVAAITSSSGSTYYADSVKVRFTISRDNAKNTVYLQMNSLIPEDTAVYYCAAESESGYHDYDYWGQGTQVTVSS | low polyreactivity
29 | QVQLVESGGGIVQAGGSLRLSCAASGRTYYYYAMGWYRQAPGKETELVASISWSGGSTYYADSVKGRFTISRDNAKNTVYLQMNSLKPEDTAVYYCNAQYHTYRWLYAVYLSGDYWGQGTQVTVSS | low polyreactivity
30 | QVQLVESGGGIVQAGGSLRLSCAASGRVFTYYAMGWYRQAPGKERELVAAISSGGNTYYADSVKGRFTISRDNAKNTVFLQMNSLKPEDTAVYYCAAAGRPRYESNYWGQGTQVSVSS | high polyreactivity
31 | QVQLVESGGGIVQAGGSLRLSCAASGSIFEPNAMGWYRQAPGQEREFVAAISGSGGSTYYADSVKGRFTSSRDNAKNTVYLQRNSLKPEDTAVYYCNALYLRTTPQDYDYWGQGTQVTVSS | high polyreactivity
32 | QVQLVESGGGIVQAGGSLRLSCAASGSIFGANAMVWYRQAPGKERELVAAISRRGGSTYYADSVKGRFTISRDNAKNTVYLQMNSLKPEDSAVYYCNTYPQSLGVKYGYWGQGTQVTVSS | high polyreactivity
33 | QVQLVESGGGIVQAGGSLRLSCAASGSIFGVYAMGWYRQAPGKERELVAAISSSGGRTYYADSVKGRFTISRDNAKNTVYLQMISLKPEDTAVYYCAAVPWRRSTRYDYWGQGTLVTVSS | high polyreactivity
34 | QVQLVESGGGIVQAGGSLRLSCAASGSIFSKYAMGWYRQAPGKERELVATISSSVGSTYYADSVKGRFTISRDNAKNTVYLQMNSLKPEDTAVYYCAARPDYEYGSHYRGGYWGQGTQVSVSS | low polyreactivity
35 | QVQLVESGGGIVQAGGSLRLSCAASGSIFSYNAMVWSRQAPGKQREFVAAIDGSDGSTYYADSVKGRFTISRDNAKNTVYLQMYSLKPEDTAVYSCAATDYDTYRSSWYDYWGQGTQVTVSS | low polyreactivity
36 | QVQLVESGGGIVQAGGSLRLSCAASGSIFTGYAMGWYRQAPGKERQLVAAISWRGGGTYYADSVKGRFTISRDNAKNTVYLQMNSLKPEDTAVYYCAAVTKFGQYAPGSKGYGYWGQGTQVTVSS | low polyreactivity
37 | QVQLVESGGGIVQAGGSLRLSCAASGSIFWVNVMGWYRQAPGKEREFVAAITRSGGSTYYADSVKGRFTISRDNAKNTVYLQMKSLKPEDTAVYYCNRRGRRGYDYWGQGTQVTVSS | high polyreactivity
38 | QVQLVESGGGIVQAGGSLRLSCAASGSIFYHNAMGWYRQAPGKERELVAAITGSGGSTYYADSVKGRFTISRDNAKNTVYLQMNSLKPEDTAVYYCAADGYTKWWISWGYDYWGQGTQVTVSS | low polyreactivity
39 | QVQLVESGGGIVQAGGSLRLSCAASGSSFWRNTMGWYRQAPGKERELVAGISSTGTSTYYADSVKGRFTISRDNAKNTVYLQMNSLKPEDTAVYYCAAAYRNRKYDYWGQGTQVTVSS | high polyreactivity
40 | QVQLVESGGGIVQAGGSLRLSCAASGSTFFSNTMGWYRQAPGKERELVAAITSRGGRTYYADSVKGRFTISRDNAKNTVYLQMNSLKPEDSAVYYCADRFVLHGVYLKFYWGQGTQVTVSS | high polyreactivity
41 | QVQLVESGGGIVQAGGSLRLSCAASGSTFGAYPMAWYRQAPGTERELVAVITRTGSTYADSVKGRFTISRDNAKNTVYLQMNSLKPVDTAVYYCNADYYVSRLYDYQVYSYRYDYWGQGTKVTVSS | high polyreactivity
42 | QVQLVESGGGIVQAGGSLRLSCAASGSTFGWYAMGWYRPAPGKERELVAAISTSGNTYYADSVKGRFTISRDNAKNTVYLQLNSLKPEDTAVYYCAKYVNPDHDYWGQGTQVTVSS | low polyreactivity
43 | QVQLVESGGGIVQAGGSLRLSCAASGSTFSYNAMGWYRQAPGKERELVAAISRGGITNYADSVKGRFTISRDNAKNTVYLQMNSLKPEDTAVYYCNAGYLGGPSYEYWGQGTQVTVSS | low polyreactivity
